Sequences and labels used below:
B1: ZBTB22 (parent)
chain: RPFDCPVCNKKFKMKHHLTEHMKT
B2: NP_006221.1 (parent)
chain: CQPISFSGFGAEDDDLGGLGLGP

Variants of B1 are the subject of the first series. As to the kind of experiment: protein stability index of a GFP-peptide fusion (GPS, HEK-293T) (PSI 1-6); higher = more stable. The conditions noted are these: c terminus: a fixed tail appended.
For RRFDCPVCNKKFKMKHHLTEHMKT [P2R], the protein stability index was determined as 2.12. Still for that read-out and setting: the result for RKFDCPVCNKKFKMKHHLTEHMKT [P2K] reads 2.83.

The variants in a further series derive from B2. Described as above. The conditions noted are these: c terminus: native.
As to CAPISFSGFGAEDDDLGGLGLGP [Q2A], the protein stability index was 1.98. The same measure, in the same setting: the same measure for CYPISFSGFGAEDDDLGGLGLGP [Q2Y]: 2.09. Regarding CWPISFSGFGAEDDDLGGLGLGP [Q2W], the protein stability index was 2.13.

Take CDPISFSGFGAEDDDLGGLGLGP [Q2D]: the protein stability index came to 2.51.

Take CSPISFSGFGAEDDDLGGLGLGP [Q2S]: the protein stability index turned out to be 2.64. For CQPISFSGFGAEDDDLGELGLGP [G18E], the protein stability index was 2.42. Same read-out and setting: the same measure for CQPISFSGFGAEDDDLGTLGLGP [G18T]: 2.23; for CQPIDFSGFGAEDDDLGGLGLGP [S5D]: 2.69. As for CQPIHFSGFGAEDDDLGGLGLGP [S5H], the protein stability index is 2.42. As to CQPITFSGFGAEDDDLGGLGLGP [S5T], the protein stability index was 2.41. In the case of CQPIFFSGFGAEDDDLGGLGLGP [S5F], the protein stability index was determined as 2.29.

Take CQPDSFSGFGAEDDDLGGLGLGP [I4D]: the protein stability index is 2.48. Regarding CQPNSFSGFGAEDDDLGGLGLGP [I4N], the protein stability index was 2.45. On to CQPLSFSGFGAEDDDLGGLGLGP [I4L], for which the protein stability index turned out to be 2.11.

On to CQPMSFSGFGAEDDDLGGLGLGP [I4M], for which the protein stability index amounted to 2.21.

With CQPISLSGFGAEDDDLGGLGLGP [F6L], the protein stability index turned out to be 3.5. For CQPISFSGFGAEDDDLGGLGLYP [G22Y], the protein stability index is 2.59.

Regarding CQPISFSGFGAEDDDLGGLGLTP [G22T], the protein stability index was 2.22. Turning to CQPISFSGFGAEDEDLGGLGLGP [D14E], the protein stability index was 2.17. Still for that read-out and setting: the same measure for CQPISFSGFGAEDMDLGGLGLGP [D14M]: 2.29; for CQPISFSGFGAEDHDLGGLGLGP [D14H]: 2.27; for CQPISFSGFGAEDYDLGGLGLGP [D14Y]: 2.12. As to CQPISFSGFGAEDGDLGGLGLGP [D14G], the protein stability index is 2.13. Regarding CQPISFSGFGSEDDDLGGLGLGP [A11S], the protein stability index was determined as 2.22. On to CQPISFSGFGTEDDDLGGLGLGP [A11T], for which the protein stability index was found to be 2.26. Turning to CQPISFSGFGEEDDDLGGLGLGP [A11E], the protein stability index was found to be 2.02.

In the case of CQPISFSGFGREDDDLGGLGLGP [A11R], the protein stability index stood at 2.32. Turning to CQPISFSGFGQEDDDLGGLGLGP [A11Q], the protein stability index was found to be 2.32. As for CQPISFSGFGMEDDDLGGLGLGP [A11M], the protein stability index came to 2.04.

Take CQPISFSGFGAEDDDLGGLSLGP [G20S]: the protein stability index turned out to be 2.69.

Take CQPISFSGFGAEDDDLGGLELGP [G20E]: the protein stability index came to 2.81.

As to CQPISFSGFGAEDDDLGGLALGP [G20A], the protein stability index was determined as 2.29. For the variant CQPISFSGFGAEDDDLGGLNLGP [G20N], the protein stability index was 3.93.

As for CQPISFSGFGAEDDDLGGHGLGP [L19H], the protein stability index came out at 2.96.

Consider CQPISFSGFGAEDDDLGGVGLGP [L19V], for which the protein stability index turned out to be 2.11. Still for that read-out and setting: the result for EQPISFSGFGAEDDDLGGLGLGP [C1E] reads 2.53; that for GQPISFSGFGAEDDDLGGLGLGP [C1G], 2.41. As to LQPISFSGFGAEDDDLGGLGLGP [C1L], the protein stability index was determined as 1.97. For the variant FQPISFSGFGAEDDDLGGLGLGP [C1F], the protein stability index amounted to 2.6.

Regarding CQPISFSGFGAEYDDLGGLGLGP [D13Y], the protein stability index came to 2.02. Take CQPISFSGFGAENDDLGGLGLGP [D13N]: the protein stability index amounted to 2.2. Still for that read-out and setting: the result for CQPISFSGFGAETDDLGGLGLGP [D13T] reads 2.28; that for CQPISFSGFGAEGDDLGGLGLGP [D13G], 2.53; that for CQPISFSGFGAEKDDLGGLGLGP [D13K], 1.93. With CQPISFSGFGAEQDDLGGLGLGP [D13Q], the protein stability index worked out at 2.21. Regarding CQPISFSGFGAEHDDLGGLGLGP [D13H], the protein stability index was 2.2. As for CQPISFSGFGAEIDDLGGLGLGP [D13I], the protein stability index turned out to be 2.5. Consider CQPISFSGFGAMDDDLGGLGLGP [E12M], for which the protein stability index is 2.25.

For the variant CQPISFSGFGARDDDLGGLGLGP [E12R], the protein stability index came to 2.31.

For the variant CQPISFSGFGAWDDDLGGLGLGP [E12W], the protein stability index was found to be 2.29. For the variant CQPISFSGFGALDDDLGGLGLGP [E12L], the protein stability index amounted to 1.88. For CQPISFSGFGACDDDLGGLGLGP [E12C], the protein stability index turned out to be 2.43. Regarding CQPISFSGFAAEDDDLGGLGLGP [G10A], the protein stability index amounted to 2.16. As to CQPISFSGFLAEDDDLGGLGLGP [G10L], the protein stability index is 2.56. As for CQPISFSGFFAEDDDLGGLGLGP [G10F], the protein stability index was 2.06. Regarding CQPISFSGFCAEDDDLGGLGLGP [G10C], the protein stability index worked out at 2.04. Regarding CQCISFSGFGAEDDDLGGLGLGP [P3C], the protein stability index was found to be 2.12. Same read-out and setting: the same measure for CQLISFSGFGAEDDDLGGLGLGP [P3L]: 2.1; for CQVISFSGFGAEDDDLGGLGLGP [P3V]: 2.14; for CQGISFSGFGAEDDDLGGLGLGP [P3G]: 2.3. For the variant CQTISFSGFGAEDDDLGGLGLGP [P3T], the protein stability index worked out at 2.09.

Consider CQMISFSGFGAEDDDLGGLGLGP [P3M], for which the protein stability index was 2.15. As to CQHISFSGFGAEDDDLGGLGLGP [P3H], the protein stability index was 2.06. As for CQPISFSGFGAEDDSLGGLGLGP [D15S], the protein stability index was 2.38. Regarding CQPISFSGFGAEDDNLGGLGLGP [D15N], the protein stability index is 2.18. On to CQPISFSGFGAEDDMLGGLGLGP [D15M], for which the protein stability index is 2.47. As to CQPISFSGFGAEDDDTGGLGLGP [L16T], the protein stability index was 2.35.

Consider CQPISFSGFGAEDDDIGGLGLGP [L16I], for which the protein stability index turned out to be 2.21. As to CQPISFSGFGAEDDDFGGLGLGP [L16F], the protein stability index amounted to 2.23. Still for that read-out and setting: the same measure for CQPISFSGFGAEDDDNGGLGLGP [L16N]: 2.07; for CQPISFSGFGAEDDDRGGLGLGP [L16R]: 2.18; for CQPISFSGLGAEDDDLGGLGLGP [F9L]: 2.23. For the variant CQPISFSGFGAEDDDLGGLGLGN [P23N], the protein stability index is 4.72.

As to CQPISFSGFGAEDDDLGGLGLGC [P23C], the protein stability index came to 3.17. Consider CQPISFSGFGAEDDDLGGLGLGQ [P23Q], for which the protein stability index came out at 4.25. Still for that read-out and setting: the same measure for CQPISFSGFGAEDDDLGGLGLGF [P23F]: 3.04. Turning to CQPISFSGFGAEDDDLLGLGLGP [G17L], the protein stability index came out at 2.2. In the case of CQPISFSGFGAEDDDLDGLGLGP [G17D], the protein stability index turned out to be 2.33. On to CQPISFSGFGAEDDDLNGLGLGP [G17N], for which the protein stability index was 2.36. Turning to CQPISFNGFGAEDDDLGGLGLGP [S7N], the protein stability index was 3.37. Take CQPISFCGFGAEDDDLGGLGLGP [S7C]: the protein stability index stood at 2.11. Take CQPISFVGFGAEDDDLGGLGLGP [S7V]: the protein stability index was 2.07. In the case of CQPISFHGFGAEDDDLGGLGLGP [S7H], the protein stability index turned out to be 3.06. Same read-out and setting: the result for CQPISFWGFGAEDDDLGGLGLGP [S7W] reads 2.42; that for CQPISFSGFGAEDDDLGGLGCGP [L21C], 3.02. For CQPISFSGFGAEDDDLGGLGAGP [L21A], the protein stability index came to 4.88. In the case of CQPISFSGFGAEDDDLGGLGQGP [L21Q], the protein stability index stood at 4.85. With CQPISFSGFGAEDDDLGGLGHGP [L21H], the protein stability index was 4.76. CQPISFSCFGAEDDDLGGLGLGP [G8C]: the protein stability index stood at 1.96.

For the variant CQPISFSIFGAEDDDLGGLGLGP [G8I], the protein stability index stood at 2.06. With CQPISFSEFGAEDDDLGGLGLGP [G8E], the protein stability index was determined as 2.03. As for CQPISFSHFGAEDDDLGGLGLGP [G8H], the protein stability index is 1.98. With CQPISFSLFGAEDDDLGGLGLGP [G8L], the protein stability index came out at 1.97. CQPISFSSFGAEDDDLGGLGLGP [G8S]: the protein stability index worked out at 2.15.

(Values after the supplement of paper PMC10567573.)
